Measurements from article PMC7608914, “Bridging of nucleosome-proximal DNA double-strand breaks by PARP2 enhances its interaction with HPF1” (PLoS ONE, 2019).

Legend:
[1] = target: T1, Alexa488-labeled PARP2-WT (human, UniProt Q9UGN5-2 1-570, Alexa Fluor 488 C5 maleimide (extent of labeling typically between 20 and 80%); labelled residue not stated); test: FRET or BRET; Alexa647-labeled HPF1 (acceptor) titrated from 18.5 μM to 0 μM into 1 μM Alexa488-labeled PARP2 (donor) alone or into the preformed PARP2–Nuc165 complex (1 μM / 100 nM); 50 mM Tris-HCl pH 8, 50 mM NaCl, 1 mM MgCl2, 0.1 mM EDTA, 0.1 mM TCEP, 0.01% NP-40; Hill model; settings: both partners purified
T1 construct: human Poly(ADP-ribose) Polymerase 2, isoform 2 cDNA in pET28b; the mutant made from this vector is called full-length; source: E. coli Rosetta2 (DE3) pLysS, purified (HisTrap, heparin, Superdex 200), then labelled

[2] = target: T2, Alexa488-labeled PARP2-QFRD (human, UniProt Q9UGN5-2 1-570, Q112R | F113D, Alexa Fluor 488 C5 maleimide (extent of labeling typically between 20 and 80%); labelled residue not stated); test: as above; settings: both partners purified
T2 construct: human Poly(ADP-ribose) Polymerase 2, isoform 2 cDNA in pET28b, Q112R/F113D double point mutant; source: E. coli Rosetta2 (DE3) pLysS, purified (HisTrap, heparin, Superdex 200), then labelled

Kd [1]: > 3 µM
Kd [2]: > 10 µM
B1: Alexa647-labeled HPF1 (natural protein, human, UniProt Q9NWY4 1-346, looked up)
chain: MVGGGGKRRPGGEGPQCEKTTDVKKSKFCEADVSSDLRKEVENHYKLSLPEDFYHFWKFCEELDPEKPSDSLSASLGLQLVGPYDILAGKHKTKKKSTGLNFNLHWRFYYDPPEFQTIIIGDNKTQYHMGYFRDSPDEFPVYVGINEAKKNCIIVPNGDNVFAAVKLFLTKKLREITDKKKINLLKNIDEKLTEAARELGYSLEQRTVKMKQRDKKVVTKTFHGAGLVVPVDKNDVGYRELPETDADLKRICKTIVEAASDEERLKAFAPIQEMMTFVQFANDECDYGMGLELGMDLFCYGSHYFHKVAGQLLPLAYNLLKRNLFAEIIEEHLANRSQENIDQLAA
modifications: Alexa Fluor 647 C2 maleimide (extent of labeling typically between 20 and 80%); labelled residue not stated
notes: human HPF1; cDNA amplified by PCR and cloned between the Nde1 and Xho1 sites of pET28a; also called HPF1_Alexa647; HPF1_A647; source: E. coli Rosetta2 (DE3) pLysS, purified (HisTrap, Superdex 75), then labelled
